{
  "source": "paper PMC9170038",
  "about": "“Crowdsourced RNA design discovers diverse, reversible, efficient, self-contained molecular switches”",
  "data": [
    {"target": "MS2 coat protein, dlFG mutant (Escherichia phage MS2, UniProt P03612, del68-81insG)", "assay": "4 mM Mg2+; no ligand; RNA-MaP array; 100 mM Tris-HCl pH 7.5, 80 mM KCl, 4 mM MgCl2, 0.1 mg/mL BSA, 1 mM DTT, 0.01 mg/mL yeast tRNA, 0.01% Tween-20; protein 1.5 nM to 3 uM; 37 C (Table S3)", "details": "chain copies: 2; label: tethered by stalled RNA polymerase", "units": {"Kd": "nM"}, "values": [
      {"binder": "Eterna 6146814 (Same State NG 1) (ssRNA) RNA: GGUGUCGCAUGAGGAUAUGGUCAGCUUUGCUGACCAGAAGGCAUGUCAAUAGACAUGAGGAUCACCCAUGUAGUAAAGACACCA", "Kd": 504},
      {"binder": "Eterna 6093766 (Exclusion NG 2) (ssRNA) RNA: UGUCGGAGCAGAGGAUAUAUACAUGAGGAUCACCCAUGUAAAUGAAUGAGCUGGAAACAGCAAGUAUAGAAGGCUGCUCCGACA", "Kd": 14.9},
      {"binder": "Eterna 7755342 (Exclusion - FMN A) (ssRNA) RNA: AAGUGUCAUUAGACACACCGAUGUAUAAACUAGGAUAUGCUGAUAAGCAGAAGGAGUGAUGUUCCUUUCAUCAUCGGAAUUAAAU", "Kd": "> 3000"},
      {"binder": "Eterna 13730 (Sensor v3, turn-off variant 1) (ssRNA) RNA: CCGAGGAAGCGGUCCUAUGACAUGAGGAUCACCCAUGUACCUCGCUACGAGCUUUUUGCUCGUCUUAUAAUUCUCGG", "Kd": 23.6},
      {"binder": "Eterna 7717543 (Exclusion - Theophylline B) (ssRNA) RNA: CCAUUCAUUUACGAUACCAGUCUAAUAUAUUUAAUCAAAACCCUCGCCGAGUGAUGUUCGGACCCUUGGCAGCGUCUGCGACAGG", "Kd": "> 3000"},
      {"binder": "Eterna 15090 (Exclusion 6) (ssRNA) RNA: AAAUGGGCGUAGGAUAUGAGAUGGUCUAGCAGCUCAGAAGGACGCACAUGAGGAUCACCCAUGUGAUCGGACUA", "Kd": 28.7},
      {"binder": "Eterna 6387857 (Small Loop Same State NG 3) (ssRNA) RNA: AAUCUUUUUAUGGGAUUACAAUAUGAGGAUAUCAUUCAUUUAUACAUGAGGAUCACCCAUGUUACUGAGAAGGCAUAUAUAAUA", "Kd": 28.4},
      {"binder": "Eterna 7646225 (Same State - Tryptophan A) (ssRNA) RNA: AAUAACAUGAGGAUCACCCAUGUAAGUAAACGAGGACCGGUACGGCCGCCACUCGAAUAAAUAAAGUACCGGUAAGAUCCAUAGA", "Kd": 21.3},
      {"binder": "Eterna 6437027 (Inverted Exclusion NG 3) (ssRNA) RNA: AUACAUGAGGAUCACCCAUGUUACUGGGUCUAUAUAGAACGUAGAAGGAUGUUUAUACACAUAACAUAGGAUAUACAAUAUUGU", "Kd": 33.3},
      {"binder": "Eterna 10695 (Exclusion 1) (ssRNA) RNA: AAUUCACAUGAGGAUCACCCAUGUCAGGAUAUGGUGACGCGGGUUUCGGUGCGUGUUGCCAGAAGGGACGGCUG", "Kd": 133},
      {"binder": "Eterna 13277 (Sensor for hsa-mir-208a) (ssRNA) RNA: AGUUGUGGGAAACUAUAGCAGACGCUCGUACAUGAGGAUCACCCAUGUCUUGUAGGAGCUGUUUGCUCGUUUUAUGG", "Kd": 63.8},
      {"binder": "Eterna 6455789 (Same State NG 2) (ssRNA) RNA: UUGGACGUCGUAGGAUAUGUAGGAUAUUCCUACAUGAGGAUCACCCAUGUUGACAUGGAAGAAGGACAGAAGUACGAUGUCCAU", "Kd": 127},
      {"binder": "Eterna 6454073 (Inverted Small Loop Exclusion NG 3) (ssRNA) RNA: CUGUGACGGUGCGCAAGUGGACGUAGAAGGGUCACAUGAGGAUCACCCAUGUGGGCCUGCUAGUGACAGGAUAUACGUUCGUGC", "Kd": 19.3},
      {"binder": "Eterna 7740311 (Same State - Theophylline A) (ssRNA) RNA: AAAAUAAGCCAGUGAUGUUGGUAUACAGAUACCAGCGACGAAAGUCGCCCUUGGCAGCUGUGGACGUACAAAAUAAGUACGUCCU", "Kd": "> 3000"},
      {"binder": "Eterna 5958897 (Exclusion NG 2) (ssRNA) RNA: AGCUGUGGCCGAGGAUAUCUAUCCCAAAUAACCGAAAUAUAAUCGGACAUGAGGAUCACCCAUGUAGAGAAGGCGGUCUCAGCA", "Kd": 28.4},
      {"binder": "Eterna 6416899 (Inverted Same State NG 1) (ssRNA) RNA: CACAAAUGGCAGAAGGGACGGACGAUAGUGUAGUCAGGAUAUGCAAAUAGGUAUGGACAUGAGGAUCACCCAUGUCCGUCCUUU", "Kd": 15.2},
      {"binder": "Eterna 11543 (Sensor v3, turn-off variant 1) (ssRNA) RNA: AAAGAAGAGAGAAAAUAACACAUGAGGAUCACCCAUGUGAGAAGUUGAGGGUGAUACAGGCUUUAUGCUCGUCUUAU", "Kd": 203},
      {"binder": "Eterna 6461246 (Same State NG 1) (ssRNA) RNA: GUUUUCGCAUGAGGAUAUGCUCGCAUUUUAAGAGCAGAAGGUAUGUCUUUAGACAUGAGGAUCACCCAUGUAUUUAUCAUUGAA", "Kd": 162},
      {"binder": "Eterna 6382764 (Same State NG 3) (ssRNA) RNA: GGACGUCACAUUAACAUGAGGAUCACCCAUGUGAAAACACAUGAGGAUAUGGAUCCUAAUUGGAUCCAGAAGGCAUGGACGUCC", "Kd": 27.8},
      {"binder": "Eterna 5989868 (Exclusion 3) (ssRNA) RNA: GUAUCACGAGGAUAUACAUGAGGAUCACCCAUGUAGAAGCCAUGUGGUGCUCAAGUAUGUAGAAGGCGUGCUCC", "Kd": 36.1},
      {"binder": "Eterna 6075609 (Exclusion 3) (ssRNA) RNA: CUGAGUUAAGGAUAUACAUGAGGAUCACCCAUGUAAAGUAGCUUGCGUACAGGCAGAUGUAGAAGGUAAUUCGG", "Kd": 43},
      {"binder": "Eterna 6458058 (Inverted Same State NG 2) (ssRNA) RNA: AAUGGGCAGCAGAAGGCAUGUCUACGGACAUGAGGAUCACCCAUGUAGUAAAGCCGAAAGGCGCAUGAGGAUAUGCUGCCCUAA", "Kd": 121},
      {"binder": "Eterna 6069320 (Exclusion 4) (ssRNA) RNA: GGGUUGUGAGGAUAUUAGUUGUACGUCAAUAGACGUAUGGGUGAGAAGGCACAUGAGGAUCACCCAUGUUCCUG", "Kd": 107},
      {"binder": "Eterna 6455078 (Same State NG 2) (ssRNA) RNA: UGGUACUAGGGAGGAUAUGGGAAGAUACAUGAGGAUCACCCAUGUUUAAGAAUGCCGAGAGGGAACUAGAAGGCCCUAGUACCU", "Kd": 255},
      {"binder": "Eterna 7691982 (Same State - Arginine B) (ssRNA) RNA: UGACUGGACUGAAGGAGCGAGCGAGACAAAGUCUCGAAAAUUCAGUGAUGUUGAAAUAUAACUCAGGUAGGUCGCAGUCUAGUCU", "Kd": "> 3000"},
      {"binder": "Eterna 6122145 (Exclusion NG 2) (ssRNA) RNA: AAAUUUAACGAAGGAUAUGCUGACAUGAGGAUCACCCAUGUGUGCUUUGUGUUGCUGAAAUGGGAGCAGAAGGUCGUAUACAUA", "Kd": 118},
      {"binder": "Eterna 8603 (Same State 1) (ssRNA) RNA: AUAAAACAUGAGGAUCACCCAUGUCAACAAAGUCGAGGAUAUGGGCAAAUAAAAUAAGAACCAGAAGGCGUAUAAU", "Kd": 530},
      {"binder": "Eterna 6071251 (Exclusion 3) (ssRNA) RNA: GCACUGACAGGAUAUACAUGAGGAUCACCCAUGUGACCCUUACAGUACUCGCGUACUGGUAGAAGGGUCUGUGC", "Kd": 35.4},
      {"binder": "UUUCUUAUUCUUUAUUGUGGGGUUUU (ssRNA)", "note": "[Eterna 4 (OligoAControl)]", "Kd": "> 3000"},
      {"binder": "Eterna 6446347 (Same State NG 2) (ssRNA) RNA: GGGUACAUCGGAGGAUAUCAUGUAAAUACAUGAGGAUCACCCAUGUCGGUGGAGACAUCGGAGAUUGAGAAGGCCGAUGUACCG", "Kd": 271},
      {"binder": "Eterna 6402815 (Same State NG 2) (ssRNA) RNA: ACCUCGUACACAGGAUAUGAUUACUUGCAGCCUGCGUUGACAUGAGGAUCACCCAUGUGGACUGAUCAGAAGGGUGAACGGAAG", "Kd": 571}
    ]}
  ]
}
